# Laboratory results: patent publication US20200079844A1 (Ablynx, published 2020)
# Where a chain is given by its changes, count along the chain named. Where two headings read alike, the source gives them in different places.
# B1: TNF2-GS9-TNF2 (TNF5) (VHH)
# chain: QVQLVESGGGLVQAGGSLRLSCAASGRTFSEPSGYTYTIGWFRQAPGKEREFVARIYWSSGLTYYADSVKGRFTISRDIAKNTVDLLMNSLKPEDTAVYYCAARDGIPTSRSVGSYNYWGQGTQVTVSSGGGGSGGGSQVQLVESGGGLVQAGGSLRLSCAASGRTFSEPSGYTYTIGWFRQAPGKEREFVARIYWSSGLTYYADSVKGRFTISRDIAKNTVDLLMNSLKPEDTAVYYCAARDGIPTSRSVGSYNYWGQGTQVTVSS
# notes: Bivalent nanobody, 9 AA GlySer linker
# B2: TNF2-GS30-TNF2 (TNF8) (VHH)
# chain: QVQLVESGGGLVQAGGSLRLSCAASGRTFSEPSGYTYTIGWFRQAPGKEREFVARIYWSSGLTYYADSVKGRFTISRDIAKNTVDLLMNSLKPEDTAVYYCAARDGIPTSRSVGSYNYWGQGTQVTVSSGGGGSGGGGSGGGGSGGGGSGGGGSGGGGSQVQLVESGGGLVQAGGSLRLSCAASGRTFSEPSGYTYTIGWFRQAPGKEREFVARIYWSSGLTYYADSVKGRFTISRDIAKNTVDLLMNSLKPEDTAVYYCAARDGIPTSRSVGSYNYWGQGTQVTVSS
# notes: Bivalent nanobody, 30 AA GlySer linker
# B3: TNF20 (TNF3 HUM1) (VHH)
# VHH: EVQLVESGGGLVQPGGSLRLSCAASGRSLSNYYMGWFRQAPGKGRELLGNISWRGYNIYYKDSVKGRFTISRDDSKNTIYLQMNSLKPEDTAVYYCAASILPLSDDPGWNTYWGQGTQVTVSS
# B4: TNF23 (TNF3 HUM4) (VHH)
# VHH: B3 VHH with Q118L
# B5: TNF33 (TNF3 HUM1) (VHH)
# VHH: B3 VHH with K87R, Q118L
# B6: TNF21 (TNF3 HUM2) (VHH)
# VHH: B3 VHH with R27F, S28T, L29F
# B7: TNF22 (TNF3 HUM3) (VHH)
# VHH: B3 VHH with P88T
# B8: PMP6C1 (VHH)
# VHH: AVQLVDSGGGLVQPGGSLRLSCAASGFSFGSFGMSWVRQYPGKEPEWVSSINGRGDDTRYADSVKGRFSISRDNAKNTLYLQMNSLKPEDTAEYYCTIGRSVSRSRTQGTQVTVSS
# notes: Class B serum albumin nanobody; tested as unpurified protein
# B9: PMP6 G7 (VHH)
# VHH: QVQLVESGGGLVQPGGSLRLSCAASGFTFSNYWMYWVRVAPGKGLERISRDISTGGGYSYYADSVKGRFTISRDNAKNTLYLQMNSLKPEDTALYYCAKDREAQVDTLDFDYRGQGTQVTVSS
# notes: serum albumin nanobody, class D
# B10: PMP1H2 (VHH)
# VHH: QVKLEESGGGLVQPGDSLRLSCAASGRTFSDYSGYTYTVGWFRQAPGKEREFVARIYWSSGNTYYADSVKGRFTISRDIAKNTVDLLMNNLEPEDTAVYYCAARDGIPTSRSVESYNYWGQGTQVTVSS
# notes: Tested as unpurified protein
# B11: TNF31 (TNF2 HUM1) (VHH)
# VHH: EVQLVESGGGLVQPGGSLRLSCAASGFTFSEPSGYTYTIGWFRQAPGKGREFVARIYWSSGLTYYADSVKGRFTISRDIAKNTVDLQMNSLRPEDTAVYYCAARDGIPTSRSVGSYNYWGQGTQVTVSS
# notes: Humanised TNF2, second round; tags not restated
# B12: TNF32 (TNF2 HUM2) (VHH)
# VHH: B11 VHH with Q124L
# notes: as for B11
# B13: TNF15 (TNF2 HUM1) (VHH)
# VHH: B11 VHH with F27R, R92K
# notes: Humanised TNF2, first round
# B14: TNF19 (TNF2 HUM5) (VHH)
# VHH: B11 VHH with F27R, R92K, Q124L
# notes: Humanised TNF2, first round
# B15: TNF17 (TNF2 HUM3) (VHH)
# VHH: B11 VHH with F27R, I79N, R92K
# notes: Humanised TNF2, first round
# B16: TNF18 (TNF2 HUM4) (VHH)
# VHH: B11 VHH with F27R
# notes: Humanised TNF2, first round
# B17: TNF16 (TNF2 HUM2) (VHH)
# VHH: B11 VHH with R92K
# notes: Humanised TNF2, first round
# B18: PMP3G2 (VHH)
# VHH: B10 VHH with Q1A, K3Q, E5V
# notes: Tested as unpurified protein
# B19: PMP1G11 (VHH)
# VHH: QVQLQESGGGMVQPGGSLRLSCAASGFDFGVSWMYWVRQAPGKGLEWVSEINTNGLITKYPDSVKGRFTISRDNAKTTLYLQMNSLKPEDTALYYCARSPSGSFRGQGTQVTVSS
# notes: Tested as unpurified protein
# B20: PMP1H6 (VHH)
# VHH: B19 VHH with Q1E, Q5V, M11L, A24T, G30S, P61V, T77N, N84D, K87I
# notes: Tested as unpurified protein
# B21: PMP6B4 (VHH)
# VHH: EVQLVESGGGLVQEGGSLRLACAASERIWDINLLGWYRQGPGNERELVATITVGDSTSYADSVKGRFTISRDYDKNTLYLQMNSLRPEDTGLYYCKIRRTWHSELWGQGTQVTVSS
# notes: Class C serum albumin nanobody; tested as unpurified protein
# B22: PMP6 G8 (VHH)
# VHH: AVQLVESGGGLVQPGGSLRLTCTASGFTFRSFGMSWVRQAPGKDQEWVSAISADSSTKNYADSVKGRFTISRDNAKKMLYLEMNSLKPEDTAVYYCVIGRGSPSSPGTQVTVSS
# notes: serum albumin nanobody, class A
# B23: PMP6 A5 (VHH)
# VHH: QVQLAESGGGLVQPGGSLRLTCTASGFTFGSFGMSWVRQAPGEGLEWVSAISADSSDKRYADSVKGRFTISRDNAKKMLYLEMNSLKSEDTAVYYCVIGRGSPASQGTQVTVSS
# notes: as for B22
# Key:
# [1] = biological target: T1, human TNFα (human, UniProt P01375 77-233); test: cell-based or functional assay
# [2] = biological target: rhesus TNFα (rhesus, UniProt P48094 77-233); test: cell-based or functional assay
# [3] = biological target: T1, human TNFα; test: cell-based or functional assay; remark: listed apart in the source
# [4] = biological target: T1, human TNFα; test: competition ELISA, biotinylated human TNFα pre-incubated with nanobody, binding to coated Enbrel; 50% inhibition
# [5] = biological target: T1, human TNFα; test: cell-based or functional assay; remark: listed apart in the source
# [6] = biological target: T1, human TNFα; test: cell-based or functional assay; remark: listed apart in the source
# [7] = biological target: T2, human serum albumin (human, UniProt P02768 25-609)
# T2 construct: On the Biacore chip; also called human albumin
# [8] = biological target: T3, mouse serum albumin (mouse, UniProt P07724 25-608)
# T3 construct: On the Biacore chip; also called mouse albumin
# [9] = biological target: T4, rhesus serum albumin (rhesus, UniProt Q28522 17-600)
# T4 construct: On the Biacore chip; also called rhesus albumin
# [10] = biological target: T1, human TNFα
# [11] = biological target: T1, human TNFα; remark: listed apart in the source
# [12] = biological target: T1, human TNFα; test: ELISA on biotinylated human TNFα captured on neutravidin (as Example 10); untreated reference and mildly treated samples
# [13] = biological target: T1, human TNFα; remark: listed apart in the source
# T4 sequence (Q28522 17-600 limits assumed): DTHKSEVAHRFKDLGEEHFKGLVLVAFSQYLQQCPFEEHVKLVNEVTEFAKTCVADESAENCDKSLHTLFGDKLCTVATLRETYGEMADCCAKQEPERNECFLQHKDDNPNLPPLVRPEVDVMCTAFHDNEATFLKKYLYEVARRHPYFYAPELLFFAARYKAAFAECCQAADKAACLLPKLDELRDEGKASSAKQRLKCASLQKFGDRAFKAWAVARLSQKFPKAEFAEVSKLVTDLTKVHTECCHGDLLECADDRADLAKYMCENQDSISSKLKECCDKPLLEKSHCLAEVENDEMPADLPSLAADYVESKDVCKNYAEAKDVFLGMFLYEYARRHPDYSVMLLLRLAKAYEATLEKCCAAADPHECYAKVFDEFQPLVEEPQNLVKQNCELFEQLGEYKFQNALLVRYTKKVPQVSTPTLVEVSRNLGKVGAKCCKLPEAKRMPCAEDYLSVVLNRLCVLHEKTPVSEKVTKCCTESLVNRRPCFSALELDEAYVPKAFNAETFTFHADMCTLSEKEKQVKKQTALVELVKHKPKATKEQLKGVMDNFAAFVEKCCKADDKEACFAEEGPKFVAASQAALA
# T1 sequence (P01375 77-233 limits assumed): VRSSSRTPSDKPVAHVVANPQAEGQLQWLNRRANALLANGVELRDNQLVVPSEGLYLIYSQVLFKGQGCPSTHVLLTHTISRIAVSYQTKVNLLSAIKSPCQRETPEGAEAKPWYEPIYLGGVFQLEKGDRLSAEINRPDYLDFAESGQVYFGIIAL
# T3 sequence (P07724 25-608 limits assumed): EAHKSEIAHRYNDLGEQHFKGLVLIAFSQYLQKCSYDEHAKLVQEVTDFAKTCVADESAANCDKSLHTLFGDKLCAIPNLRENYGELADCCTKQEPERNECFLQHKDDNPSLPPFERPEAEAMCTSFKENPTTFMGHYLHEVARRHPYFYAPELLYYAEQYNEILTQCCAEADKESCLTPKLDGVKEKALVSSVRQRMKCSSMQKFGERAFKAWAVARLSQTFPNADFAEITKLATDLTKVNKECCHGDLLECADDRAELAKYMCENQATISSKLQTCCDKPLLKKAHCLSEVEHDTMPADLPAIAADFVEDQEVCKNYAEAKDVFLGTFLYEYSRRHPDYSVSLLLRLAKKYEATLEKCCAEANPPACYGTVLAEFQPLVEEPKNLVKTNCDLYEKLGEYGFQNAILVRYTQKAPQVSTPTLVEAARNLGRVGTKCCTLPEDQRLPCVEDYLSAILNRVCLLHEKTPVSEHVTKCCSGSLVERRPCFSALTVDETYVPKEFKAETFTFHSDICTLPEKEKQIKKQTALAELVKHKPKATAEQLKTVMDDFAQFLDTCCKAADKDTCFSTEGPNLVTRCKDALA
# rhesus TNFα, sequence (P48094 77-233 limits assumed): as the sequence (P01375 77-233 limits assumed) above, with R44T, T72N, R138L counted along it
binder,measurement,setting,value
B1,"EC50 in nM (mean); L929s + Act D cytotoxicity assay, human TNFa @ 0.5 ng/ml",[1],0.02 nM
same,"EC50 in nM (mean); L929s + Act D cytotoxicity assay, rhesus TNFa @ 0.5 ng/ml",[2],35 nM
same,"EC50 in nM; alphaKYM cell assay (10000 c/w), human TNFa @ 1 ng/ml",[3],0.008 nM
same,IC50,[4],0.0063 µg/mL
B2,"EC50 in nM (mean); L929s + Act D cytotoxicity assay, human TNFa @ 0.5 ng/ml",[1],0.007 nM
same,"EC50 in nM (mean); L929s + Act D cytotoxicity assay, rhesus TNFa @ 0.5 ng/ml",[2],1.03 nM
same,"EC50 in nM; alphaKYM cell assay (10000 c/w), human TNFa @ 1 ng/ml",[3],0.013 nM
same,IC50,[4],0.023 µg/mL
B3,"EC50 in nM (mean); L929s + Act D cytotoxicity assay, human TNFa @ 0.5 ng/ml",[5],0.38 nM
same,"EC50 in nM (mean); L929s + Act D cytotoxicity assay, human TNFa @ 0.5 ng/ml",[6],0.38 nM
B4,"EC50 in nM (mean); L929s + Act D cytotoxicity assay, human TNFa @ 0.5 ng/ml",[5],0.3 nM
same,"EC50 in nM (mean); L929s + Act D cytotoxicity assay, human TNFa @ 0.5 ng/ml",[6],0.3 nM
B5,"EC50 in nM (mean); L929s + Act D cytotoxicity assay, human TNFa @ 0.5 ng/ml",[6],0.3 nM
B6,"EC50 in nM (mean); L929s + Act D cytotoxicity assay, human TNFa @ 0.5 ng/ml",[5],0.889 nM
same,"EC50 in nM (mean); L929s + Act D cytotoxicity assay, human TNFa @ 0.5 ng/ml",[6],0.889 nM
B7,"EC50 in nM (mean); L929s + Act D cytotoxicity assay, human TNFa @ 0.5 ng/ml",[5],0.303 nM
same,"EC50 in nM (mean); L929s + Act D cytotoxicity assay, human TNFa @ 0.5 ng/ml",[6],0.303 nM
B8,binding result,[7],binds
same,binding result,[8],binds
same,binding result,[9],binds
B9,binding result,[7],binds
same,binding result,[9],binds
B10,koff,[10],0.00365 s⁻¹
B11,"EC50 in nM (mean); L929s + Act D cytotoxicity assay, human TNFa @ 0.5 ng/ml",[6],2.19 nM
same,koff,[11],0.00063 s⁻¹
same,EC50 (read off the curve),[12],~10 ng/mL
B12,"EC50 in nM (mean); L929s + Act D cytotoxicity assay, human TNFa @ 0.5 ng/ml",[6],2.51 nM
same,koff,[11],0.00084 s⁻¹
same,EC50 (read off the curve),[12],~10 ng/mL
B13,"EC50 in nM (mean); L929s + Act D cytotoxicity assay, human TNFa @ 0.5 ng/ml",[5],1.67 nM
same,"EC50 in nM (mean); L929s + Act D cytotoxicity assay, human TNFa @ 0.5 ng/ml",[6],5.9 nM
same,koff,[13],0.00054 s⁻¹
B14,"EC50 in nM (mean); L929s + Act D cytotoxicity assay, human TNFa @ 0.5 ng/ml",[5],2.19 nM
same,"EC50 in nM (mean); L929s + Act D cytotoxicity assay, human TNFa @ 0.5 ng/ml",[6],7.37 nM
same,koff,[13],0.00079 s⁻¹
B15,"EC50 in nM (mean); L929s + Act D cytotoxicity assay, human TNFa @ 0.5 ng/ml",[5],3.02 nM
same,"EC50 in nM (mean); L929s + Act D cytotoxicity assay, human TNFa @ 0.5 ng/ml",[6],7.55 nM
same,koff,[13],0.0011 s⁻¹
B16,"EC50 in nM (mean); L929s + Act D cytotoxicity assay, human TNFa @ 0.5 ng/ml",[5],1.51 nM
same,"EC50 in nM (mean); L929s + Act D cytotoxicity assay, human TNFa @ 0.5 ng/ml",[6],3.13 nM
same,koff,[13],0.0007 s⁻¹
B17,"EC50 in nM (mean); L929s + Act D cytotoxicity assay, human TNFa @ 0.5 ng/ml",[5],1.9 nM
same,"EC50 in nM (mean); L929s + Act D cytotoxicity assay, human TNFa @ 0.5 ng/ml",[6],2.42 nM
same,koff,[13],0.00066 s⁻¹
B18,koff,[10],0.0109 s⁻¹
B19,koff,[10],0.00115 s⁻¹
B20,koff,[10],0.00214 s⁻¹
B21,binding result,[7],binds
same,binding result,[8],binds
same,binding result,[9],binds
B22,binding result,[7],binds
same,binding result,[8],binds
same,binding result,[9],binds
B23,binding result,[7],binds
same,binding result,[8],binds
same,binding result,[9],binds
